Source: a protein production outcome set (Wang et al. 2014)

Assay: label from the status in PepcDB records

MAAAAAGPASSQRLFQSFSDALIDGDPQAALEELTKALEQNPDDAQYYCQRAYCHILLGKYRDGIADVKKSLELNPNNCTALLRKGICEYHEKDYASALETFAEGQKLDSTDTNFDTWIKRCQEIQNGSESEVSASQRTQSKIKYDWYQTESHVIITLMIKSVQKNDVRVGFSERELSALVKIPAGEDYSLKLRLLHPIIPEQSTFKVLSTKIEIKMKKPEAVRWEKLEGQGDEPTPKQFTADVKNMYPSSSHYTRNWDKLVGEIKEEEKNEKLEGDAALNKLFQQIYSDGSDEVKRAMNKSFMESGGTVLSTNWSDVGKRKVEINPPDDMEWKQY
protein production: failed

MQFLAPIISIVVGFLSFVLVLRTWMQFCQVSAYLPLSQSLLRLTAPMVNPVSKFIPTVKNINFAALLIALALLAVEKGVLGLPLTMAVLVGLLGIIKMFGQILFFTTLIRALMSWVTRGDHPLDEVIAQITEPVLGIIRKILPRTGMLDFSVMVLGFGLLLLNNLFYSVFGAFWAVA
protein production: failed

MILTILIGAMAAIFIAFNLFEKKEKYGVVSYKTIALSVTYVILAVIVGSFLDNFNTLFQGFHDSLTAAKRY
protein production: failed

FVWHEYENAAEAAQSLADAVADALQGALDEKGGAVLAVSGGRSPIAFFNALSQKDLDWKNVGITLADERIVPTVHADSNTGLVREYLLKNKAEAAMWIPMVEDGKTETELHPDAVVDYALKHYKQPDVLVLGMGNDGHTASIFPKAPQFQTAIDGSAGVALVHTTPVTAPHERVSMTLDAIAHTGHVFLAIRGEEKKAVFDQAAQGENREYPINLVLNHQGVNCHV
protein production: failed

MRDRGDKPAEAGLGLTQTRQEDPAAMIDLYYAPTPNGWKISIMLEECGLPYKVVPMQLGRGDQHQPGFLKLSPNGRMPAIVDHAPIGGGAPLSVFESGAILIYLAEKSGQLMPTETRARFEVMQWLMWQMAGLGPMLGQNGHFLLYAPEKIPYAIDRYSREAKRLYGVLDQRLADRACIAGDYSIADIACFPWIMTHKAQGLTLDDYPNIKRWYAALRARPKLQAGLALGKEDKKPMDEQARKLLFGVDKPAHADAQAQSAQQQ
protein production: not failed

MLLDVKFTKNTCTKLIGLWLKFFLFYSLLPFSTSAQEASFRFKRLGLEDGLSQISVNGIAQDVNGFIWFATQDGLNKYDGYQITTYRHQPSDPNSIINNHIHSIFKDSKHNLWIGSYGGLSKYEPKTDNFTHYNSPSLNDSDGKVGYIQSLFEDSDGELWLSSNMGLYRYSIDTNTYILYLPDDNKPNSVIHSEIKSIAEDSIGNIWIGTTIGVSKYNKRNNTFTNYQHSPENPHSLSNNFVLKIYKDSQNNLWFGTFGGGLDRYDNDTSKFVHHRTNTQNKNSLGNNYIRTILEDSAGMLWLGTNNGLYAFDSSKLIFQRFRHSVNDRHSLSHDVIYSLFQDKDGSLWAGTLGGGVNLFRPSTNVFKHYKSNPNNPESLNANMVYAIYDDDEYVWVGTSGGGLNKLNKTTGKFSNFTEPETSVGLGLNKVNYIIKASEAELWLSTNSDGLLKYNKNTGNITQYKHHPDDRNSLSNNRARGLAIDKEGNLWIGTAGGGLNKLDPISGQFTHFMPDTDNPNSISTNFIRCLLYDSKGRLWTGSYGQGLNRFDFDTQTFINFNKDSVKEPILSNKFIRSIFEDKSGNIWVLTNGGIIKYDESKGSFHSYTTTDGLPSNVVYGALEDQKNNLWLSTNNGLSKFNPQNITFENYTKEEGIQENEFNTGSFFKNKTGEMYFGGINGFTLFHPDKIKKDKTIPTVSFTNLLLYNDAIAIGESERFSSHISSTNALNFAHNDDVITFEFSALSYSQANNISYRYQLQGFSDNWIETDHNHRRATFTNLSKGDYILKVKASNRNRSWGEETTDLRITIAAAYWETTWFRGLLLAIGFIVFVIAIKWREKALNNQNLVLDIMVKERTKELESSQEYSNKLEKLVQKRTLNLQKANTALEQSSITDALTGIRNRRFLDQQLSSDWAIQSRNNLPLSILMIDIDYFKKYNDYYGHQQGDECLQKIAKEIQSVINRPTDNLCRYGGEEFVVITYNDAEGAKHIAKLILKKLDELALVHLTSDKGIVSVSIGLGTMVPSIEVAPARLLKYADDALYQAKNNGRDQLC
protein production: failed

MTNSGIILVASAALFWGLSGGIAGILINDDWNAVLVSFCRGAVGLIFVLMWLVLRPRNSGFTNGKLWLWSIIAGFGVSGNFAFYFFSISESSVAVAATLMYCAPIFVYLISFAIKIERPTLSKCAAILLVMAGVVLLTRVYQIDSSGITPIGVIAGLLSGMSLALFIFGFKYAARQGSPQAVLAIAFSTLTLALGTLIDIEEAGRVVNSADWPLFAILGVLGGGASFILYIIGLRRTLPALASIVATIEPVTAALFGVIILGEVLAYTQVLGMLIILATVTALGVYSSKQ
protein production: failed

MSLKENKYDDKHFFEQYSQMPRSKEGLKAAGEWHELKKMLPDFNQKTVLDLGCGFGWHCIYAAEHGAKKVLGIDLSERMLTEAKRKTTSPVVCYEQKAIEDIAIEPDAYNVVLSSLALHYIASFDDICKKVYINLKSSGSFIFSVEHPVFTADGRQDWYTDETGNKLHWPVDRYFNESMRTSHFLGEDVQKYHRTVTTYIQTLLKNGFQINSVIEPEPAPELKDLPEMQDEYRRPMMLLISATKQEGHHHHHH
protein production: not failed

MTHPLYIFDLDETLINGDCAMIWNEFLVDKGIVTTPDFLEEDKRLMTLYSRGLMDMEDYLIFAMSPLKNIPTDQVEILIEECVNERILPLLFPEAKILIHQLKADNVDMIVISASVSFLVKIVAKNIGIKHAIGIDLKEKNGCYTRHILGVPSYREGKVSRLTEWLNGGDKTYSALHFYTDSINDLPLCLYADHTYLVNPCEQLAVYSKKKNWPILAWGSQ
protein production: failed

MVTSSSMRRCRGALSLSFWIFLVLRSVLSRPVFGAAAGPAVQSARQCSASRGTGESDPPPFQPTLRLFPPSRRRRSYCRAMTPSRPSPDFPDGGFVQVRGARQHNLKDISVKVPRDALVVFTGVSGSGKSSLAFGTLYAEAQRRYLESVSPYARRLFNQAGVPDVDAIDGLPPAVALQQARGTPTARSSVGSVTTLSNLLRMLYSRAGDYPPGQGIVYAEGFSPNTPEGACPECHGLGRVYTVTEDSMVPDPSLTIRERAVAAWPQAWGGQNQRDILVTLGIDVDVPWRELPEETRHWILFTDEQPVVPVYPGLTPAETQRALKKKMEPSYMGTFSSARRHVLHTFANTESASMKKRVQGYMISEECPLCHGKRLRQEALNVTFAGLDITELSRLPLARVSELLRPYAEEREPGHAERVKNRPEQAIALQRMAADLVKRLDVLLHLGLGYLGLDRSTPTLSPGELQRLRLATQLYSNLFGVVYVLDEPSAGLHPADTEALLSALENLKRGGNSLFVVEHDLDVIRRADWLVDVGPEAGEKGGEILYSGPPEGLKHVPESQTGQYLFADRHTEPHTPREPAGWLELNGVTRNNLDNLDVRFPLGVMTSVTGVSGSGKSTLVSQALVDALAAHFGQPVNPDPEDDEDPADHTAGSARLGGDLAQITRLVRVDQKPIGRTPRSNMATYTGLFDQVRKLFAATPLAKKRGYNAGRFSFNVKGGRCEHCQGEGWVMVELLFLPSVYAPCPVCHGTRYNAETLEVEYRGKNIADVLALTVDEAHDFFADESAIFRALDTLREVGLGYLRLGQPATELSGGEAQRIKLATELQRSGRGGTVYVLDEPTTGLHPADVERLQRQLVKLVDAGNTVIAVEHKMQVVAASDWVLDIGPGAGEDGGRLVAQGTPAEVAQAAGSVTAPYLRAALRLEHHHHHH
protein production: failed

MRAIAIVLARSSSKRIKNKNIIDFFNKPMLAYPIEVALNSKLFEKVFISSDSMEYVNLAKNYGASFLNLRPKILADDRATTLEVMAYHMEELELKDEDIACCLYGASALLQEKHLKNAFETLNKNQNTDYVFTCSPFSASPYRSFSLENGVQMAFKEHSNTRTQDLKTLYHDAGLLYMGKAQAFKEMRPIFSQNSIALELSPLEVQDIAHFRRFRISQAQIQPFEKRMPVKILCDCFLTSGLGHVRRCEKILSFIEKLGVEASLYLHKQNNISAFLEGVGGNDFLITDSYCLNSKDFYLLKEKAKSLMVIEDTEHAKGFYPKNTKILNFTLNALKHYHHLSKDYQYYLGVGFYPVDARFIYDRPINTENKEVLITLGGSEQKTLKEIVKILENKNVNLHIISPYTPKNPPKNTHYYSPLNPLEFSSLMKSCACAISAAGQTLYELALSQTPSLILPIASNQIIQSKEFESLGIFKQTSLKTLAKDFENLQIQKNQAWAKNLVFGDKLEGALREFLEI
protein production: failed

MEGWDPNTKSTLTRIPLLTTKAGPRDGAAWTQRLKEEYKSLIAYTQMNKSNDNDWFRISASNPEGTRWTGKCWYVHNLLKYEFDLQFDIPITYPATAPELELPEIDGKTQKMYRGGKICLTVHFKPLWAKNCPRFGIAHALCLGLAPWLAAEIPILVDSGAIKHKDDAATSAES
protein production: failed

MASSTLFKLNSQTFKALNPSPPSLSPPNSRIFHLHFSKSLSQQHSKLNHKSTTTRLFAPLCSSLPSPSSSSPPLSKEEAINQAKTCLLSCLIKPLNNPKLASPKLRKLKQPRFRLEIPILDDDSPSSLSQLAFSIFHDLPISRRGSNVKLLFLWPNPSFIDPAVKAFRSDSIHHIAMSPVSDSLKTALRSADVAIFMAPEKSQLEDVKTASEAFSTKPVVMINPRWLFEEEKSFGDGFIGSFEVIYAFTGLEVRGVFSKRKGVIFKCVRDGVVSGERWNVLVEEEEGNGTLKVVSQFNSRPSIEEVELVLYNLMAMNSPITKSAKFLSDLVSNITGKK
protein production: failed

TLDPSAQAIAEAALARGVQAHQGQYGAVIMLETRTGRILAAATYPPFDPGNWRGKPDTQERVKNRAFLDAYEPGSTMKALTIAAALNDGITTPDTVYETPMSRHVGGRWGHTIGDAVDHPSSLTTQQVLRYSSNVGMSHIVEGFTYQKLRDYLAAYGFGQPVNLTGAVTAQGILKPIDKWNDLERATNSFGQGVSGTTLQVAAAYNAVANDGLYVTPRLIEGAPAGERHEVVRAASARTVREMLKAIVVEGKFASLEGYDLSGKTGTAQVATENGYSNSVYKSTYAGFFPSDTPRVTVAVMVHGAQGEHHGSQVAAPIFREIASGMLSEWGTAPE
protein production: failed

MAYSACFLHQSALASSAARSSSSSSSQRHVSLSKPVQIICKAQQSHEDDNSAVSRRLALTLLVGAAAVGSKVSPADAAYGEAANVFGKPKTNTDFLPYNGDGFKVQVPAKWNPSKEIEYPGQVLRFEDNFDATSNLNVMVTPTDKKSITDYGSPEEFLSQVNYLLGKQAYFGETASEGGFDNNAVATANILESSSQEVGGKPYYYLSVLTRTADGDEGGKHQLITATVNGGKLYICKAQAGDKRWFKGARKFVESAATSFSVA
protein production: failed

MPTDYIRNGVLYVTENYLCFESSKSGSSKRNKVIKLVDITDIQKYKVLSVLPGSGMGIAVSTPSTQKPLVFGAMVHRDEAFETILSQYIKITSAAASGGDS
protein production: failed

MRSDGRKEDQLRPVSIQRDFLEYPEGSCLISFGKTKVICTASVIENVPNWLKGKGQGWITAEYSMLPRATQQRTIRESVQGRIGGRTHEIQRMIGRAMRTAVELTKIGERTIWVDCDVIQADGGTRTAAITGAFVAVADAIIKLHKEGIIEETPIKDFVAAVSVGIVNDRILLDLNFEEDSAAQVDMNVVGTGSGRLSEVHTMGEEYSFTKDELIKMLDLAQKGINELIELQKKLYVIQDGKWERSELKEVSSTT
protein production: not failed

MLYIFTPTFNRGYRLSYLYDSLCNQTNKNFIWLIVDDGSEDSTKEIVSNYIKENKVSIVYLYKRNGGKHSAYNLAMRYMQPSDYHVCVDSDDWLLEDAVEIIFKDLESLTLSNRYVGLVYPRYSLNQGNNWLNPKILEVNIPDLKYKYHLKIETCIVINNAYLVDFEFPCFEGENFLSEEIMYIYLSKKGYFCPQNRKIYCFDYLEDGLTSNIFKLWRKNFKGTIFSLENSYMYVMSFPNIFDRWWSAIKIKMNIQALKMTTLGVIPTLKSEEAGWKILLGFSYLWKVARFKKSELEHHHHHH
protein production: not failed

MSETATWQPSASIPNLLKRAAIMAEIRRFFADRGVLEVETPCMSQATVTDIHLFPFETRFVGPGHSQGINLYLMTSPEYHMKRLLAAGCGPVFQLCRSFRNEEMGRHHNPEFTMLEWYRPHYDMYRLMNEVDDLLQQVLDCQPAESLSYQQAFQRHLEIDPLSADKTQLREAAAKLDLSNIADTEEDRDTLLQLLFTMGVEPHIGKEKPTFIYHFPASQASLAQISTEDHRVAERFEVYYKGIELANGFHELTDAREQQQRFEQDNRKRAARGLPQQPIDQNLLDALAAGLPDCSGVALGVDRLVMLALGAESLADVIAFTVDRA
protein production: not failed
